Measurements taken from publication PMC12319226 (Frontiers in Bioinformatics, 2025).

T1: fHbp m002252 (Neisseria meningitidis; fHbp …, chimera)
T1 chain: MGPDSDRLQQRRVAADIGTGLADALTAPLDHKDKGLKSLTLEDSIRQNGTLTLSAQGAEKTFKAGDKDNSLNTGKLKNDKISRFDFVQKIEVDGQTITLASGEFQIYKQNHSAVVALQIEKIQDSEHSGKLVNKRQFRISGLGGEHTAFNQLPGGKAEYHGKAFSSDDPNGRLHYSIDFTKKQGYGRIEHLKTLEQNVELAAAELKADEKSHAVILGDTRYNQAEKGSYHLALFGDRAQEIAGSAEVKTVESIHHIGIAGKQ

T2: fHbp m002421 (Neisseria meningitidis, designed fHbp …, point mutant)
T2 chain: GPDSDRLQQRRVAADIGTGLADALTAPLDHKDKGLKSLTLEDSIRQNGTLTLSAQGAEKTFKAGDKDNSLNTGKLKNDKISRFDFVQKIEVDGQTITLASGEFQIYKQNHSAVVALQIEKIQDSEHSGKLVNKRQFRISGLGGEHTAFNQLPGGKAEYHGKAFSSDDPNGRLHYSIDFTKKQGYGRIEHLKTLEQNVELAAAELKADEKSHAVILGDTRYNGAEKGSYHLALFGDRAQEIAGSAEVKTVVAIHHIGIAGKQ

T3: fHbp m002420 (Neisseria meningitidis, designed fHbp …, chimera)
T3 chain: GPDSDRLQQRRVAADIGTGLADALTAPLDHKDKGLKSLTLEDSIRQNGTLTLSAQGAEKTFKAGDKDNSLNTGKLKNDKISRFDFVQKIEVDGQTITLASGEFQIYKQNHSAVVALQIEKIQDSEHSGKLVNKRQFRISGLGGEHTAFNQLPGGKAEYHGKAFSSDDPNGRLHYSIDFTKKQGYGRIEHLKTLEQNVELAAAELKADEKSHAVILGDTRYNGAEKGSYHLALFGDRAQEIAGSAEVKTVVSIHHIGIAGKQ

T4: fHbp m001691 (Neisseria meningitidis; fHbp …, point mutant)
T4 chain: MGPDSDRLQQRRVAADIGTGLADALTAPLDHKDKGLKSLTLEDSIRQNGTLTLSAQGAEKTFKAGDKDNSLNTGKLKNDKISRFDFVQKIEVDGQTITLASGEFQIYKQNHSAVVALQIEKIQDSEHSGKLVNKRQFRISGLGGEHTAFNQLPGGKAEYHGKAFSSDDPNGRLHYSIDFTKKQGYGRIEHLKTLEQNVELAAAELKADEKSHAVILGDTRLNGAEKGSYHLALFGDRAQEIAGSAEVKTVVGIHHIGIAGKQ

T5: fHbp m001935 (Neisseria meningitidis; fHbp …, chimera)
T5 chain: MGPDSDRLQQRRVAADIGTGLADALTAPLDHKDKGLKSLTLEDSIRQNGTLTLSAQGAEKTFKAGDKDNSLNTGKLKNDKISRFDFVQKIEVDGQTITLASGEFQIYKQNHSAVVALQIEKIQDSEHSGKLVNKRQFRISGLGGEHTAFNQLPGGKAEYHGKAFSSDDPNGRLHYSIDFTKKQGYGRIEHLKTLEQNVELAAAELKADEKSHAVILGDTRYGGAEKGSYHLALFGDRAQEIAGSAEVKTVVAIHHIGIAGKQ

T6: fHbp m001929 (Neisseria meningitidis; fHbp …, chimera)
T6 chain: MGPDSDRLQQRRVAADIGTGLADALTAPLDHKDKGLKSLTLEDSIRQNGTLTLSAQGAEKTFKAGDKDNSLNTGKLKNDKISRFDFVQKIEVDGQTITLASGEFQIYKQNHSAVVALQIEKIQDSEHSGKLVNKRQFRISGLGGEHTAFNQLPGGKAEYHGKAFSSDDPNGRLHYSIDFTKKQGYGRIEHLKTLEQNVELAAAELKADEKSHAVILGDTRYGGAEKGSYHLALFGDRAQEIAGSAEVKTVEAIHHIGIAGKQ

T7: fHbp m002332 (Neisseria meningitidis; fHbp …, chimera)
T7 chain: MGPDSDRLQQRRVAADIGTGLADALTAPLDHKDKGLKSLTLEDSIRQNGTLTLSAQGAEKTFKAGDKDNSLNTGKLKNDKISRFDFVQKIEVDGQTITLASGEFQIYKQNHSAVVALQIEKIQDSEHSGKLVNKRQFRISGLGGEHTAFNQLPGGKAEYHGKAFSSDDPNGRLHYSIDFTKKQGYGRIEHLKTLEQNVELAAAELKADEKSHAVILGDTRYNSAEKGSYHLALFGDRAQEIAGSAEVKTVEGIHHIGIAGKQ

T8: fHbp m001928 (Neisseria meningitidis; fHbp …, chimera)
T8 chain: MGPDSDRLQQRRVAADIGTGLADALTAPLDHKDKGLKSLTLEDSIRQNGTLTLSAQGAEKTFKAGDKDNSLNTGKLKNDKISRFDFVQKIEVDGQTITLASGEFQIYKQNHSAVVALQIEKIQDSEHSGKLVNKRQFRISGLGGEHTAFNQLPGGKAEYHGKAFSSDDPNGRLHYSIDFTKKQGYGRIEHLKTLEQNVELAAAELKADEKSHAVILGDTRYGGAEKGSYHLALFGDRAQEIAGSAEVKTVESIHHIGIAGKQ

T9: fHbp m001927 (Neisseria meningitidis; fHbp …, chimera)
T9 chain: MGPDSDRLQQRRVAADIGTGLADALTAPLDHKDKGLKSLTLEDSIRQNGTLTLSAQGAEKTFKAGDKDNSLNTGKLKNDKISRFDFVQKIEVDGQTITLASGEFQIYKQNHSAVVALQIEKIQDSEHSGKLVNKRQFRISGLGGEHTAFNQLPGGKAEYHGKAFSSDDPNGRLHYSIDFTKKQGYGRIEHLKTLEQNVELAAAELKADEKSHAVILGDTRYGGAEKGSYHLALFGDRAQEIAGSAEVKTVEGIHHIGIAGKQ


Tests used:
Assay in all cases: BLI
Settings in all cases: both partners purified
fHbp m002252 = target: T1, fHbp m002252
fHbp m002421 = target: T2, fHbp m002421
fHbp m002420 = target: T3, fHbp m002420
fHbp m001691 = target: T4, fHbp m001691
fHbp m001935 = target: T5, fHbp m001935
fHbp m001929 = target: T6, fHbp m001929
fHbp m002332 = target: T7, fHbp m002332
fHbp m001928 = target: T8, fHbp m001928
fHbp m001927 = target: T9, fHbp m001927

Row | Binder | Kd (fHbp m002252) | koff (fHbp m002252) | kon (fHbp m002252) | Kd (fHbp m002421) | koff (fHbp m002421) | kon (fHbp m002421) | Kd (fHbp m002420) | koff (fHbp m002420) | kon (fHbp m002420) | Kd (fHbp m001691) | koff (fHbp m001691) | kon (fHbp m001691) | Kd (fHbp m001935) | koff (fHbp m001935) | kon (fHbp m001935) | Kd (fHbp m001929) | koff (fHbp m001929) | Kd (fHbp m002332) | Kd (fHbp m001928) | Kd (fHbp m001927) | also measured
1 | mAb 1E6 (human) (antibody, V domains shown, source: Expi293, purified (MabSelect SuRe, SEC); copies: 2 + 2) VH: EVQLVQSGAEVKKPGSSVKVSCKASGGTVIDYPITWVRQAPGQGLEWVGGFVPLFRTSNYGQKFQGRVTITADKSTSTASMELNSLTSEDTAIYYCARGDTAMGPFDYWGQGTLVTVSS VL: SYVLTQPPSLSVAPGKTATLTCGGNNIAGKTVHWYQQRPGQAPVLVISYDSDRPSGIPERFSGSNSANTATLTISRVEAGDEADYYCQVWDRNSDHWVFGGGTKLTVL | 133 pM | 4.06e-05 s⁻¹ | 304600 ± 2710 M⁻¹ s⁻¹ | 131 pM | 5.56e-05 s⁻¹ | 424400 ± 3050 M⁻¹ s⁻¹ | 285 pM | 0.000154 s⁻¹ | 542300 ± 2290 M⁻¹ s⁻¹ | 1010 pM | 0.000364 s⁻¹ | 361600 ± 1550 M⁻¹ s⁻¹ | 131 pM | 5.4e-05 s⁻¹ | 412500 ± 2300 M⁻¹ s⁻¹ | 235 pM | 9.11e-05 s⁻¹ | 708 pM | 174 pM | 293 pM | kon (fHbp m001929): 387500 ± 2190 M⁻¹ s⁻¹; koff (fHbp m002332): 0.000264 s⁻¹; kon (fHbp m002332): 373200 ± 1990 M⁻¹ s⁻¹; koff (fHbp m001928): 0.000163 s⁻¹; kon (fHbp m001928): 937300 ± 2910 M⁻¹ s⁻¹; koff (fHbp m001927): 0.000118 s⁻¹; kon (fHbp m001927): 402600 ± 1680 M⁻¹ s⁻¹
2 | chimeric antibody hJAR5 (antibody, V domains shown, also called hJAR5-2; humanized JAR5; source: Expi293, purified (MabSelect SuRe, SEC); copies: 2 + 2) VH: QVQMQQPGAELVKPGASVKLSCKASGYTFISYWMHWVKQRPGRGLEWIGRIAPDTGIIYYNEKFKNKATLTVDTPSSTAYMQLNSLTSEDSAVYYCARYLKYDGSTYRFDYWGQGTTLTVSS VL: DIVMTQAAPSVPVTPGESVSISCRSSKSLLHSNGNTYLFWFLQRPGQSPQLLIYRMSNLASGVPDRFSGSGSGTSFTLRISRVEAEDVGVYYCMQHLEYPYTFGGGTKLEIK | 5070 pM |  |  | 192 pM |  |  | 256 pM |  |  | 838 pM |  |  | 401 pM |  |  | 348 pM |  | 662 pM | 741 pM | 824 pM | 
3 | mAb 4B3 (human) (antibody, V domains shown, also called 4B3-2; source: Expi293, purified (MabSelect SuRe, SEC); copies: 2 + 2) VH: QVQLVQSGGGLVKPGGSLRLSCAASGFPFSSYYMSWIRQAPGKGLEWVSDINNSGNVKEYADFVKGRLTISRDNVKNSMYLHMNSLRVEDTAVYYCARNRGRFDVWGQGTLVTVSA VL: EIVMTQSPGTLSLSPGETATLSCRASQMISSPFLAWYQQRRGQAPRLLIYGASTRATDTPDRFRGSGSGTDFILTISRLEPEDFAVYYCQYYDDSPFTFGQGTKLEIK | 1270 pM | 0.000415 s⁻¹ | 327400 ± 2090 M⁻¹ s⁻¹ | 1250 pM | 0.00101 s⁻¹ | 803900 ± 3510 M⁻¹ s⁻¹ | 2010 pM | 0.000887 s⁻¹ | 441000 ± 4480 M⁻¹ s⁻¹ | 3100 pM | 0.000731 s⁻¹ | 235300 ± 1280 M⁻¹ s⁻¹ | 2340 pM | 0.000973 s⁻¹ | 415300 ± 2100 M⁻¹ s⁻¹ | 2630 pM | 0.000635 s⁻¹ | 4040 pM | 4250 pM | 3640 pM | kon (fHbp m001929): 242000 ± 2590 M⁻¹ s⁻¹; koff (fHbp m002332): 0.00118 s⁻¹; kon (fHbp m002332): 291800 ± 1150 M⁻¹ s⁻¹; koff (fHbp m001928): 0.00106 s⁻¹; kon (fHbp m001928): 248300 ± 1560 M⁻¹ s⁻¹; koff (fHbp m001927): 0.000943 s⁻¹; kon (fHbp m001927): 259300 ± 1550 M⁻¹ s⁻¹
4 | chimeric antibody h12C1 (antibody, V domains shown, also called humanized 12C1; source: Expi293, purified (MabSelect SuRe, SEC); copies: 2 + 2) VH: QVQLQESGPELVKPGASVKISCKASGYSFSDYNMSWVKQSNGKSLEWIGIIDPKYGTINYNQKFKGKATLTVDQASSTAYMQLNSLTSEDSAVYYCVRDYYGSSYFDYWGQGTTLTVSS VL: DIVLTQSPSSIYASLGERVTLTCKASQDIHNYLNWFQQKPGKSPKTLIYRANRLVDGVPSRFSGGGSGQDYSLTISSLEFEDIGIYYCLQYDEFPPTFGGGTRLEIK | 269 pM | 4.04e-05 s⁻¹ | 150400 ± 1270 M⁻¹ s⁻¹ | 33800 pM | 0.00845 s⁻¹ | 250000 ± 2560 M⁻¹ s⁻¹ | 70400 pM | 0.02143 ± 0.00013 s⁻¹ | 304000 ± 6160 M⁻¹ s⁻¹ | 34000 pM | 0.00857 s⁻¹ | 252000 ± 2680 M⁻¹ s⁻¹ | 18900 pM | 0.00626 s⁻¹ | 330500 ± 3080 M⁻¹ s⁻¹ | 45900 pM | 0.00802 s⁻¹ | 1190 pM | 55300 pM | 380 pM | kon (fHbp m001929): 175000 ± 4560 M⁻¹ s⁻¹; koff (fHbp m002332): 0.000253 s⁻¹; kon (fHbp m002332): 212700 ± 1530 M⁻¹ s⁻¹; koff (fHbp m001928): 0.0146 s⁻¹; kon (fHbp m001928): 264000 ± 5240 M⁻¹ s⁻¹; koff (fHbp m001927): 7.94e-05 s⁻¹; kon (fHbp m001927): 209200 ± 1710 M⁻¹ s⁻¹
